# Results taken from paper PMC4014985 (Scientific Reports, 2014).
# B1: C-terminus of MBD1 (MBD1-c, residues D507-Q605) (domain or fragment, human, UniProt Q9UIS9 507-605, looked up)
# chain: DEWTPGTAVLTSPVLVPGCPSKAVDPGLPSVKQEPPDPEEDKEENKDDSASKLAPEEEAGGAGTPVITEIFSLGGTRFRDTAVWLPRSKDLKKPGARKQ
# Assays:
# Experiment in all cases: ITC
# MBP-HDAC3 = MBP-HDAC3 (UniProt O15379 1-428)
# [1] = target: 3-methyl purine DNA glycosylase (MPG) (UniProt P29372 18-298)
# MBP-MCAF1Δ8 = target: MBP-MCAF1Δ8
# MBP-HDAC3, sequence (O15379 whole entry): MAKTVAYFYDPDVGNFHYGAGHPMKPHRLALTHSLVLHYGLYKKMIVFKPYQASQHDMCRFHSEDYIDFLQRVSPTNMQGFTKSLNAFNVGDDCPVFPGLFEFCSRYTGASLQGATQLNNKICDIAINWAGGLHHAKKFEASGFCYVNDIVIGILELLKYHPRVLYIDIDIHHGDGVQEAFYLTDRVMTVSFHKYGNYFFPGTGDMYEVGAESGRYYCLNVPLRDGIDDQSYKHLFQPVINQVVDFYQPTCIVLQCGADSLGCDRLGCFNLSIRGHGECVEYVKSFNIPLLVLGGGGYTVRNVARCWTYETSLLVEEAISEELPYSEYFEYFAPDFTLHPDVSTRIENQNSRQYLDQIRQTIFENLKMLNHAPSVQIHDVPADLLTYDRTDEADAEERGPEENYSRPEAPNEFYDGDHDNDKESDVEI
# 3-methyl purine DNA glycosylase (MPG), sequence (P29372 18-298): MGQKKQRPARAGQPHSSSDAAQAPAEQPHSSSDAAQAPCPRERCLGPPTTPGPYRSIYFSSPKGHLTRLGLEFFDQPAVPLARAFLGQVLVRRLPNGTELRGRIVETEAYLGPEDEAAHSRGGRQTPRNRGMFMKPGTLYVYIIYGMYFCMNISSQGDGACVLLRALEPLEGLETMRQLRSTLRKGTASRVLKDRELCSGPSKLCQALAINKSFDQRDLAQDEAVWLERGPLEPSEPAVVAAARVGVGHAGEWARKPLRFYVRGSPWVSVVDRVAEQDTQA
binder,measurement,setting,value
B1,Ka,MBP-HDAC3,430000 ± 0.07 M⁻¹
same,Kd,MBP-HDAC3,2350 ± 370 nM
same,dH,MBP-HDAC3,-1.75 ± 0.78 kcal/mol
same,stoichiometry N,MBP-HDAC3,0.98 ± 0.06
same,Ka,[1],450000 ± 0.09 M⁻¹
same,Kd,[1],2290 ± 490 nM
same,dH,[1],-0.87 ± 0.09 kcal/mol
same,stoichiometry N,[1],1.1 ± 0.11
same,Ka,MBP-MCAF1Δ8,160000 M⁻¹
same,Kd,MBP-MCAF1Δ8,6.4 µM
same,dH,MBP-MCAF1Δ8,-3.92 kcal/mol
same,stoichiometry N,MBP-MCAF1Δ8,1.06
